The data set addresses CA125 (native antigen) (human, UniProt Q8WXI7 1-14451). Kind of data set: nitrocellulose membrane binding, elution and nanodrop quantification; CA125 20 U/mL immobilized; 1 mM Mg2+ in binding buffer; SELEX binding buffer 10 mM PBS, 1 mM MgCl2, 0.01% herring sperm DNA, 25 C; KD in binding buffer (composition not restated), 2 h at RT; pH not stated. Particulars: protein: native.

B1: Apt 2.26 (ssDNA)
DNA: TAGGGAAGAGAAGGACATATGATTTTAGGGAAGAGAAGGACTTTTATGCCGCCTTGACTAGTACATGACCACTTGA
B1 registered a Kd of 166 nM.

B2: Apt 2.43 (ssDNA)
DNA: TAGGGAAGAGAAGGACATATGATGATCAACAACACAAGGGGGGGGGTATCTAGTTGACTAGTACATGACCACTTGA
Consider B2, for which the Kd was found to be 239 nM.

Source of the values: PMC7242751, “Novel ssDNA Ligand Against Ovarian Cancer Biomarker CA125 With Promising Diagnostic Potential”.
